Our source for the protein stability index values is the supplement of paper PMC10567573.

B1: ESRRA (parent)
chain: LGVAQRSLPLQDELAFAEDLVLDE
B2: LMNB1 (parent)
chain: LYKEELEQTYHAKLENARLSSEMN
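Further: lentivirally expressed fusions sorted by FACS into six bins by GFP to DsRed ratio, PSI derived from sequencing read proportions per bin multiplied by bin number.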

The first data set covers variants of B1. Put plainly: protein stability index of a GFP-peptide fusion (GPS, HEK-293T) (PSI 1-6); higher = more stable. The following applies: c terminus: a fixed tail appended.
As to LGVAQRSLPLQDELAFAEPLVLDE [D19P], the protein stability index amounted to 4.89. Same read-out and setting: for LGVAQRSLPLQDELAFAESLVLDE [D19S] the value was 2.21.

With LGVAQRSLPLQDELAFAEQLVLDE [D19Q], the protein stability index was determined as 3.58.

In the case of LGVAQRSLPLQDELAFAENLVLDE [D19N], the protein stability index came out at 1.76.

On to LGVAQRSLPLQDELAFAEKLVLDE [D19K], for which the protein stability index came out at 2.49. Same read-out and setting: for LGVAQRSLPLQDELAFAECLVLDE [D19C] the value was 1.82. Same read-out and setting: for LGVAQRSLPLQDELAFAERLVLDE [D19R] the value was 2.01; for LGVAQRSLPLQDELAFAEFLVLDE [D19F], 2.56; for LGVAQRSLPLQDELAFAEWLVLDE [D19W], 2.23. On the same count and under the same terms, for LGVAQRSLPLQDELAFAEDLSLDE [V21S] the value was 4.43. Regarding LGVAQRSLPLQDELAFAEDLYLDE [V21Y], the protein stability index was 4.61. Consider LGVAQRSLPLQDELAFAEDLDLDE [V21D], for which the protein stability index is 5.76. Take LGVAQRSLPLQDELAFAEDLLLDE [V21L]: the protein stability index worked out at 3.96. Consider LGVAQRSLPLQDELAFAEDLNLDE [V21N], for which the protein stability index worked out at 5.49. Still for that read-out and setting: for LGVAQRSLPLQDELAFAEDLRLDE [V21R] the value was 4.83. Take LGVAQRSLPLQDELAFAEDLALDE [V21A]: the protein stability index worked out at 5.06. The same measure, in the same setting: for LGVAQRSLPLQDELAFAEDLFLDE [V21F] the value was 4.63; for LGVAQRSLPLQDELAFAEDLKLDE [V21K], 5.28; for LGVAQRSLPLQDELAFAEDLPLDE [V21P], 5.27. The same measure, in the same setting: for LGVAQRSLPLQDELAFAEDLCLDE [V21C] the value was 4.31; for LGVAQRSLPLQDELAFAEDLQLDE [V21Q], 5.24.

Consider LGVAQRSLPLQDELAFAEDLTLDE [V21T], for which the protein stability index was determined as 5.39. The same measure, in the same setting: for LGVAQRSLPLQDELAFAEDLELDE [V21E] the value was 5.31; for LGVAQRSLPLQDELAFAEDLILDE [V21I], 1.56; for LGVAQRSLPLQDELAFAEDLWLDE [V21W], 4.03. On the same count and under the same terms, for LGVAQRSLPLQDELAFAEDLGLDE [V21G] the value was 5.31. Same read-out and setting: for LGVAQRSLPLQDELAFAEDLMLDE [V21M] the value was 4.49; for LGVAQRSLPLQDELAFAEDLHLDE [V21H], 5.28.

Variants of B2 are the subject of a further data set. Described as above. As to conditions: c terminus: a fixed tail appended.
Turning to AYKEELEQTYHAKLENARLSSEMN [L1A], the protein stability index came to 2.92.

For HYKEELEQTYHAKLENARLSSEMN [L1H], the protein stability index was determined as 3.19.

On to DYKEELEQTYHAKLENARLSSEMN [L1D], for which the protein stability index is 4.03. The same measure, in the same setting: for MYKEELEQTYHAKLENARLSSEMN [L1M] the value was 3.06; for TYKEELEQTYHAKLENARLSSEMN [L1T], 2.85. The same measure, in the same setting: for PYKEELEQTYHAKLENARLSSEMN [L1P] the value was 4.45; for IYKEELEQTYHAKLENARLSSEMN [L1I], 2.5.

As for RYKEELEQTYHAKLENARLSSEMN [L1R], the protein stability index came to 2.91. On the same count and under the same terms, for VYKEELEQTYHAKLENARLSSEMN [L1V] the value was 2.75; for CYKEELEQTYHAKLENARLSSEMN [L1C], 3.14; for WYKEELEQTYHAKLENARLSSEMN [L1W], 2.21. Same read-out and setting: for GYKEELEQTYHAKLENARLSSEMN [L1G] the value was 3.53; for FYKEELEQTYHAKLENARLSSEMN [L1F], 2.27. Still for that read-out and setting: for YYKEELEQTYHAKLENARLSSEMN [L1Y] the value was 3.24; for KYKEELEQTYHAKLENARLSSEMN [L1K], 2.97. On to EYKEELEQTYHAKLENARLSSEMN [L1E], for which the protein stability index amounted to 3.99.

For the variant QYKEELEQTYHAKLENARLSSEMN [L1Q], the protein stability index came out at 3.6. With NYKEELEQTYHAKLENARLSSEMN [L1N], the protein stability index came out at 2.98.

For SYKEELEQTYHAKLENARLSSEMN [L1S], the protein stability index came out at 2.9. The same measure, in the same setting: for LQKEELEQTYHAKLENARLSSEMN [Y2Q] the value was 4.21; for LWKEELEQTYHAKLENARLSSEMN [Y2W], 1.5.

Turning to LAKEELEQTYHAKLENARLSSEMN [Y2A], the protein stability index is 2.91. As to LHKEELEQTYHAKLENARLSSEMN [Y2H], the protein stability index came to 4. For the variant LSKEELEQTYHAKLENARLSSEMN [Y2S], the protein stability index stood at 4.12. With LLKEELEQTYHAKLENARLSSEMN [Y2L], the protein stability index was 3.04.

As to LKKEELEQTYHAKLENARLSSEMN [Y2K], the protein stability index amounted to 3.27. The same measure, in the same setting: for LTKEELEQTYHAKLENARLSSEMN [Y2T] the value was 4.08; for LPKEELEQTYHAKLENARLSSEMN [Y2P], 3.06. On the same count and under the same terms, for LIKEELEQTYHAKLENARLSSEMN [Y2I] the value was 2.09. Regarding LGKEELEQTYHAKLENARLSSEMN [Y2G], the protein stability index worked out at 4.15. Still for that read-out and setting: for LDKEELEQTYHAKLENARLSSEMN [Y2D] the value was 4.18. As to LNKEELEQTYHAKLENARLSSEMN [Y2N], the protein stability index stood at 3.46. The same measure, in the same setting: for LRKEELEQTYHAKLENARLSSEMN [Y2R] the value was 3.48; for LVKEELEQTYHAKLENARLSSEMN [Y2V], 1.77. The same measure, in the same setting: for LEKEELEQTYHAKLENARLSSEMN [Y2E] the value was 4.37; for LFKEELEQTYHAKLENARLSSEMN [Y2F], 1.96. Same read-out and setting: for LMKEELEQTYHAKLENARLSSEMN [Y2M] the value was 2.31; for LCKEELEQTYHAKLENARLSSEMN [Y2C], 2.78. Consider LYKLELEQTYHAKLENARLSSEMN [E4L], for which the protein stability index turned out to be 2.17. The same measure, in the same setting: for LYKGELEQTYHAKLENARLSSEMN [E4G] the value was 2.38; for LYKAELEQTYHAKLENARLSSEMN [E4A], 2.7; for LYKFELEQTYHAKLENARLSSEMN [E4F], 2.37. For the variant LYKKELEQTYHAKLENARLSSEMN [E4K], the protein stability index came out at 2.46.

Turning to LYKHELEQTYHAKLENARLSSEMN [E4H], the protein stability index came to 2.94.

As to LYKDELEQTYHAKLENARLSSEMN [E4D], the protein stability index is 2.69. Same read-out and setting: for LYKIELEQTYHAKLENARLSSEMN [E4I] the value was 2.02. The same measure, in the same setting: for LYKCELEQTYHAKLENARLSSEMN [E4C] the value was 2.38; for LYSEELEQTYHAKLENARLSSEMN [K3S], 2.65; for LYREELEQTYHAKLENARLSSEMN [K3R], 2.9. The same measure, in the same setting: for LYPEELEQTYHAKLENARLSSEMN [K3P] the value was 3.09; for LYDEELEQTYHAKLENARLSSEMN [K3D], 3.56; for LYMEELEQTYHAKLENARLSSEMN [K3M], 1.7.

Consider LYVEELEQTYHAKLENARLSSEMN [K3V], for which the protein stability index is 1.67.

Take LYLEELEQTYHAKLENARLSSEMN [K3L]: the protein stability index was 1.79. On the same count and under the same terms, for LYFEELEQTYHAKLENARLSSEMN [K3F] the value was 1.77; for LYYEELEQTYHAKLENARLSSEMN [K3Y], 2.34; for LYHEELEQTYHAKLENARLSSEMN [K3H], 2.91. Take LYCEELEQTYHAKLENARLSSEMN [K3C]: the protein stability index is 2.64. In the case of LYNEELEQTYHAKLENARLSSEMN [K3N], the protein stability index was 3.29. The same measure, in the same setting: for LYWEELEQTYHAKLENARLSSEMN [K3W] the value was 1.61; for LYTEELEQTYHAKLENARLSSEMN [K3T], 2.81. Same read-out and setting: for LYAEELEQTYHAKLENARLSSEMN [K3A] the value was 1.94; for LYGEELEQTYHAKLENARLSSEMN [K3G], 2.73; for LYEEELEQTYHAKLENARLSSEMN [K3E], 2.47. Still for that read-out and setting: for LYQEELEQTYHAKLENARLSSEMN [K3Q] the value was 2.56; for LYIEELEQTYHAKLENARLSSEMN [K3I], 2.19.
